Patent publication US20210371536A1 (SEOUL NATIONAL UNIVERSITY R AND DB FOUNDATION, published 2021)

T1: cynomolgus monkey PDGFR-β (Fc chimera) (cynomolgus monkey)
T1 construct: not shown: human Fc (hFc) and its junction to the receptor part
T1 chain: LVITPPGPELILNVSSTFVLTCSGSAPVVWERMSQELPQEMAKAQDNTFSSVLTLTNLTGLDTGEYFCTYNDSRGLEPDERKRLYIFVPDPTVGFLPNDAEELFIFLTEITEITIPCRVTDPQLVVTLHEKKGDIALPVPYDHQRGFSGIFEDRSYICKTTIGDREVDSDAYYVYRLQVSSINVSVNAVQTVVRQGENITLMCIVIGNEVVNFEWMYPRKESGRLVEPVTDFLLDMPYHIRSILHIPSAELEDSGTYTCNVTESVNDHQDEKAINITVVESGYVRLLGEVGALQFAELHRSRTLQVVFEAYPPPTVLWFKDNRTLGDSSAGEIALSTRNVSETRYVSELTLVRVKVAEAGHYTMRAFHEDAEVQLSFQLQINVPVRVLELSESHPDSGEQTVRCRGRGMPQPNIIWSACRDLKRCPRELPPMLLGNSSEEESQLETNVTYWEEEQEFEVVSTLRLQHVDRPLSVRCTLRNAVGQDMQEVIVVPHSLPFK

T2: Sus scrofa PDGFR-β-Fc chimera (Sus scrofa, UniProt Q6QNF3 33-530 (dog entry))
T2 construct: also called Sus crowfa PDGFR-β; not shown: human Fc (hFc) and its junction to the receptor part
T2 chain: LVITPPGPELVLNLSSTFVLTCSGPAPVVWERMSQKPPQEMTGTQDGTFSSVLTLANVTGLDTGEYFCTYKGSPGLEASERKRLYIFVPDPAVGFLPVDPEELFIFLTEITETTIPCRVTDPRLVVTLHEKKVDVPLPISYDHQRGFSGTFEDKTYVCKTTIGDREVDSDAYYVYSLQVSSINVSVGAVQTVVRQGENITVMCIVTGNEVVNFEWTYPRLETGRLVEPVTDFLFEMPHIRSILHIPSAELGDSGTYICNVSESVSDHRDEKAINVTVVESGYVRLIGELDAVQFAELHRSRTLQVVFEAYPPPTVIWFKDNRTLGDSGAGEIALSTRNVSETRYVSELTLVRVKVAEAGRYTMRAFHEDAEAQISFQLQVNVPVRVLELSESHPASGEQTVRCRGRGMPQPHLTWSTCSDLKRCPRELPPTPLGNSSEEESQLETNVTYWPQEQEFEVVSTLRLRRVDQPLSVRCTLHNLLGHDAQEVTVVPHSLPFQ

B1: PRb-CC01 x cotinine scFv-Cκ-scFv fusion protein (bispecific antibody) (bispecific antibody)
chain: LTQPSSVSANLGGTVKITCSGGGSYYGWYQQKSPGSAPVTLIYYNDKRPSDIPSRFSGSKSGSTGTLTITGVQAEDEAVYFCGAWDNSAGYAGFGAGTTLTVLGQSSRSSGGGGSSGGGGSAVTLDESGGGLQTPGGALSLVCKGSGFTFSSYNMGWVRQAPGKGLEFVAGISAADNSTAYGAAVDGRATISRDNGQSTVRLQLNNLRAEDTATYFCIRGGGSIDAWGHGTEVIVSSGGGGSGGGGSGGGGSRTVAAPSVFIFPPSDEQLKSGTASVVCLLNNFYPREAKVQWKVDNALQSGNSQESVTEQDSKDSTYSLSSTLTLSKADYEKHKVYACEVTHQGLSLPVTKSFNRGESGGGGSGGGGSGGGGSDIQMTQSPSSLSASVGDRVTITCQSSQSPYSNEWLSWYQQKPGKAPKLLIYRISTLASGVPSRFSGSRSGTDFTLTISSLQPEDFATYYCAGGYNFGLFLFGQGTKVEIKGQSSRSSGGGGSSGGGGSEVQLVESGGGLVQPGGSLRLSCAASGHLRRRDWMNWVRQAPGKGLEWVAAIGRSGDTYYATWAKGRFTISADTSKNTAYLQMNSLRAEDTAVYYCSRIPYFGWNNGDIWGQGTLVTVSS
B2: PRb-CC02 x cotinine scFv-Cκ-scFv fusion protein (bispecific antibody) (bispecific antibody)
chain: LTQPSSVSANPGETVKITCSGGGGSYGWYQQKSPGSAPVTVIYYNDKRPSDIPSRFSGSKSGSTGTLTITGVQAEDEAVYFCGSYNSSDSLFGAGTTLTVLGQSSRSSGGGGSSGGGGSAVTLDESGGGLQTPGGALSLVCKASGFTFSSYGMFWVRQAPGKGLEWVAGIDTGSGTNYGSAVKGRATISRDNGQSTVRLQLNNLRAEDTGTYFCTRGYAGTIDAWGHGTEVIVSSTSGGGGSGGGGSGGGGSRTVAAPSVFIFPPSDEQLKSGTASVVCLLNNFYPREAKVQWKVDNALQSGNSQESVTEQDSKDSTYSLSSTLTLSKADYEKHKVYACEVTHQGLSLPVTKSFNRGESGGGGSGGGGSGGGGSDIQMTQSPSSLSASVGDRVTITCQSSQSPYSNEWLSWYQQKPGKAPKLLIYRISTLASGVPSRFSGSRSGTDFTLTISSLQPEDFATYYCAGGYNFGLFLFGQGTKVEIKGQSSRSSGGGGSSGGGGSEVQLVESGGGLVQPGGSLRLSCAASGHLRRRDWMNWVRQAPGKGLEWVAAIGRSGDTYYATWAKGRFTISADTSKNTAYLQMNSLRAEDTAVYYCSRIPYFGWNNGDIWGQGTLVTVSS
B3: PRb-CC03 x cotinine scFv-Cκ-scFv fusion protein (bispecific antibody) (bispecific antibody)
chain: LTQPSSVSANPGETVKITCSGGTYNYGWYQQKSPGSAPVTVIYWNDKRPSDIPSRFSGSKSGSTGTLTITGVQAEDEAVYYCGSSDSSGLIFGAGTTLTVLGQSSRSSGGGGSSGGGGSAVTLDESGGGLQTPGGTLSLVCKASGFTFSSYAMGWVRQAPGKGLEWVAGIDTAGGTAYGPAVKGRATISRDNGQSTVRLQLNNLRAEDTATYYCTRSSYIDTWGHGTEVIVSSTSGGGGSGGGGSGGGGSRTVAAPSVFIFPPSDEQLKSGTASVVCLLNNFYPREAKVQWKVDNALQSGNSQESVTEQDSKDSTYSLSSTLTLSKADYEKHKVYACEVTHQGLSLPVTKSFNRGESGGGGSGGGGSGGGGSDIQMTQSPSSLSASVGDRVTITCQSSQSPYSNEWLSWYQQKPGKAPKLLIYRISTLASGVPSRFSGSRSGTDFTLTISSLQPEDFATYYCAGGYNFGLFLFGQGTKVEIKGQSSRSSGGGGSSGGGGSEVQLVESGGGLVQPGGSLRLSCAASGHLRRRDWMNWVRQAPGKGLEWVAAIGRSGDTYYATWAKGRFTISADTSKNTAYLQMNSLRAEDTAVYYCSRIPYFGWNNGDIWGQGTLVTVSS
B4: PRb-CN16 x cotinine scFv-Cκ-scFv fusion protein (bispecific antibody) (bispecific antibody)
chain: LTQPSSVSANPGETVKITCSGSSSSYGWYQQKSPGSAPVTLIYENNQRPSNIPSRFSGSKSGSTGTLTITGVQAEDEAVYYCGNADRSNSAGTFGAGTTLTVLGQSSRSSGGGGSSGGGGSAVTLDESGGGLQTPGTALSLVCKASGFTFSSFNMAWVRQAPGKGLEFVGEISNTAGSTFYAPAVKGRATISRDNGQSTVRLQLNNLRAEDTAIYYCAKAAGTCYSHSCTGYIDAWGHGTEVIVSSTSGGGGSGGGGSGGGGSRTVAAPSVFIFPPSDEQLKSGTASVVCLLNNFYPREAKVQWKVDNALQSGNSQESVTEQDSKDSTYSLSSTLTLSKADYEKHKVYACEVTHQGLSLPVTKSFNRGESGGGGSGGGGSGGGGSDIQMTQSPSSLSASVGDRVTITCQSSQSPYSNEWLSWYQQKPGKAPKLLIYRISTLASGVPSRFSGSRSGTDFTLTISSLQPEDFATYYCAGGYNFGLFLFGQGTKVEIKGQSSRSSGGGGSSGGGGSEVQLVESGGGLVQPGGSLRLSCAASGHLRRRDWMNWVRQAPGKGLEWVAAIGRSGDTYYATWAKGRFTISADTSKNTAYLQMNSLRAEDTAVYYCSRIPYFGWNNGDIWGQGTLVTVSS
notes: also called anti-hPDGFR-β x cotinine scFv-Cκ-scFv
B5: PRb-CN26 x cotinine scFv-Cκ-scFv fusion protein (bispecific antibody) (bispecific antibody)
chain: LTQPSSVSANPGETVKITCSGGGSYAGSYYYGWYQQKSPGSAPVTVIYDNTNRPSNIPSRFSGSLSGSTDTLTITGVQAEDEAVYFCGGYDGISDTGIFGAGTTLTVLGQSSRSSGGGGSSGGGGSAVTLDESGGGLQTPGGGLSLVCKASGFTFSDRGIHWVRQAPGKGLEWVAGIGNTGSYTAYAPAVKGRATISRDNGQSTVRLQLNNLRAEDTATYYCAKRGFMDAGGIDAWGHGTEVIVSSTSGGGGSGGGGSGGGGSRTVAAPSVFIFPPSDEQLKSGTASVVCLLNNFYPREAKVQWKVDNALQSGNSQESVTEQDSKDSTYSLSSTLTLSKADYEKHKVYACEVTHQGLSLPVTKSFNRGESGGGGSGGGGSGGGGSDIQMTQSPSSLSASVGDRVTITCQSSQSPYSNEWLSWYQQKPGKAPKLLIYRISTLASGVPSRFSGSRSGTDFTLTISSLQPEDFATYYCAGGYNFGLFLFGQGTKVEIKGQSSRSSGGGGSSGGGGSEVQLVESGGGLVQPGGSLRLSCAASGHLRRRDWMNWVRQAPGKGLEWVAAIGRSGDTYYATWAKGRFTISADTSKNTAYLQMNSLRAEDTAVYYCSRIPYFGWNNGDIWGQGTLVTVSS
B6: PRb-CN01 x cotinine scFv-Cκ-scFv fusion protein (bispecific antibody) (bispecific antibody)
chain: LTQPSSVSANPGETVKITCSGGSGSYGWFQQKSPGSAPVTVIYSNNQRPSDIPSRFSGSKSGSTNTLTITGVQAEDEAIYYCGTRDSSYVGIFGAGTTLTVLGQSSRSSGGGGSSGGGGSAVTLDESGGGLQTPGGALSLVCKASGFTFSDRAMHWVRQAPGKGLEWVGLITNTGGSTNYGAAVKGRATISRDNGQSTVRLQLNNLRAEDTGTYYCTRGVGSWAHGGRIDAWGHGTEVIVSSGGGGSGGGGSGGGGSRTVAAPSVFIFPPSDEQLKSGTASVVCLLNNFYPREAKVQWKVDNALQSGNSQESVTEQDSKDSTYSLSSTLTLSKADYEKHKVYACEVTHQGLSLPVTKSFNRGESGGGGSGGGGSGGGGSDIQMTQSPSSLSASVGDRVTITCQSSQSPYSNEWLSWYQQKPGKAPKLLIYRISTLASGVPSRFSGSRSGTDFTLTISSLQPEDFATYYCAGGYNFGLFLFGQGTKVEIKGQSSRSSGGGGSSGGGGSEVQLVESGGGLVQPGGSLRLSCAASGHLRRRDWMNWVRQAPGKGLEWVAAIGRSGDTYYATWAKGRFTISADTSKNTAYLQMNSLRAEDTAVYYCSRIPYFGWNNGDIWGQGTLVTVSS

Legend:
mPDGFR-β on NIH3T3 cells = mPDGFR-β on NIH3T3 cells (mouse, UniProt P05622 32-1098); assay: cell-based or functional assay
Chain of mPDGFR-β on NIH3T3 cells (P05622 32-1098): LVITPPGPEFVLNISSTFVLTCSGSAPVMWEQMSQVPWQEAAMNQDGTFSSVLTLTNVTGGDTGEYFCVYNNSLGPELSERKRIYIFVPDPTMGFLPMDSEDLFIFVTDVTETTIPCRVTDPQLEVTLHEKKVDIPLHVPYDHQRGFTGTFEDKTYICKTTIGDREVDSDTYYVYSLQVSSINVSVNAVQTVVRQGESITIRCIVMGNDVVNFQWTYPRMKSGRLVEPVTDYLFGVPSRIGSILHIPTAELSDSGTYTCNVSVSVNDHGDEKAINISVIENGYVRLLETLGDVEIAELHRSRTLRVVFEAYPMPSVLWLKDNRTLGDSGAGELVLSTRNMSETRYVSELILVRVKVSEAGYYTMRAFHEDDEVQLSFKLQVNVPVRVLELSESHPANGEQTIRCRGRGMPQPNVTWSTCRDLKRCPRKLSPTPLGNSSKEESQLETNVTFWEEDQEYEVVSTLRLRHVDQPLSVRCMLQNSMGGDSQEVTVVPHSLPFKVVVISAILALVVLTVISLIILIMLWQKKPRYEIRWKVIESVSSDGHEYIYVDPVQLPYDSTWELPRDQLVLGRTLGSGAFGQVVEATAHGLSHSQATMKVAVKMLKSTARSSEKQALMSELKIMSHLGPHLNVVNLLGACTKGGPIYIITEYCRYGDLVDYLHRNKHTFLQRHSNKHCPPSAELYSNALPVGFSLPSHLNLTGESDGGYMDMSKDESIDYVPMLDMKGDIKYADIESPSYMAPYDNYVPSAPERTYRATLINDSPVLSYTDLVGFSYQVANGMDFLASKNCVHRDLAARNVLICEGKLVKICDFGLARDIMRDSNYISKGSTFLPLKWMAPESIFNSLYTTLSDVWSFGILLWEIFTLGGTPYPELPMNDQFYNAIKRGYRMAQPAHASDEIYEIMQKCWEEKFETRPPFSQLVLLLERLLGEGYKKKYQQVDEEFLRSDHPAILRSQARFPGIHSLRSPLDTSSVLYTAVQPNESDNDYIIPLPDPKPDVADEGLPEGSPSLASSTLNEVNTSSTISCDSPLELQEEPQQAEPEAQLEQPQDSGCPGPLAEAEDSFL

[1] = molecular target: hPDGFR-β on human pericyte cells (human, UniProt P09619 33-1106); assay: cell-based or functional assay
Chain of hPDGFR-β on human pericyte cells (P09619 33-1106): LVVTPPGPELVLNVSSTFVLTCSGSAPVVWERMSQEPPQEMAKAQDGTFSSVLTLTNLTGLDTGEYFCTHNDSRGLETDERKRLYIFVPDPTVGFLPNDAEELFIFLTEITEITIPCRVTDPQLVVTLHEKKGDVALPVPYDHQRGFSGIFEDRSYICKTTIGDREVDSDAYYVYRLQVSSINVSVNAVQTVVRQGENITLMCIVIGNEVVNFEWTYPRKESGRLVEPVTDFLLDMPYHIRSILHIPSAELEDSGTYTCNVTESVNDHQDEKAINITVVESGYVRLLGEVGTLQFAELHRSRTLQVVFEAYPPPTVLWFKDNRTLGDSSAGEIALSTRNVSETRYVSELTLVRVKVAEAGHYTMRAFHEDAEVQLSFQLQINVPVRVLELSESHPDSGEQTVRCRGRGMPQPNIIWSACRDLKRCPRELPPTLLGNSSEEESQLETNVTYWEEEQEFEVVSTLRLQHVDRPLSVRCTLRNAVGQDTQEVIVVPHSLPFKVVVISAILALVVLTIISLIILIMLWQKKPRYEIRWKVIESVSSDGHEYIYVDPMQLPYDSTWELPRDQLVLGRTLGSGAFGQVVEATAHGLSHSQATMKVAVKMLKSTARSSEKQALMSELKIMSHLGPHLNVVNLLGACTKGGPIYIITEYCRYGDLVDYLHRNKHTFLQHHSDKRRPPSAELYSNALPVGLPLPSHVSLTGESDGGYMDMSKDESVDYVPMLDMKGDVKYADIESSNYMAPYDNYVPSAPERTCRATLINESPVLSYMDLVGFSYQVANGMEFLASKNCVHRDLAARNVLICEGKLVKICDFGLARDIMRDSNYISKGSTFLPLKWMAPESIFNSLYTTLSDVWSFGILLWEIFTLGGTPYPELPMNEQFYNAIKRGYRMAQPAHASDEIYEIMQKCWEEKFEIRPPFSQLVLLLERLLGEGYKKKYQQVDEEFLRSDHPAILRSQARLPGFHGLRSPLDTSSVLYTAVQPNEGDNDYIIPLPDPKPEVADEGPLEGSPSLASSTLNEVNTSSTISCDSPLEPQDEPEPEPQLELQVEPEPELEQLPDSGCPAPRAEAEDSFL

[2] = molecular target: T1, cynomolgus monkey PDGFR-β (Fc chimera); assay: cross-species ELISA on coated antigen, 100 nM bispecific, HRP-anti-human Cκ detection
[3] = molecular target: T2, Sus scrofa PDGFR-β-Fc chimera; assay: as above

Binder | IC50 (nM) of relative cell viability (cellular ATP), NIH3T3 cells, bispecific complexed with cot-duo, with mPDGF-BB (mPDGFR-β on NIH3T3 cells) [nM] | IC50 (nM) of relative cell viability (cellular ATP), NIH3T3 cells, bispecific complexed with cot-duo, without mPDGF-BB (mPDGFR-β on NIH3T3 cells) [nM] | IC50 (nM) of relative cell viability (cellular ATP), NIH3T3 cells, bispecific complexed with cot-duo-cot, with mPDGF-BB (mPDGFR-β on NIH3T3 cells) [nM] | IC50 (nM) of relative cell viability (cellular ATP), NIH3T3 cells, bispecific complexed with cot-duo-cot, without mPDGF-BB (mPDGFR-β on NIH3T3 cells) [nM] | IC50 (nM) of relative cell viability (cellular ATP), human pericyte cells, bispecific complexed with cot-duo, with hPDGF-BB [1] [nM] | IC50 (nM) of relative cell viability (cellular ATP), human pericyte cells, bispecific complexed with cot-duo, without hPDGF-BB [1] [nM] | binding result [2] | binding result [3]
B1 | 27.1 | 25 | 67.2 | 87.6 |  |  |  | 
B2 | 20.6 | 20.1 | 89 | 125 |  |  |  | 
B3 | 20.7 | 27.3 | 50.2 | 67.3 |  |  |  | 
B4 |  |  |  |  | 1.82 | 2.39 | binds | binds
B5 |  |  |  |  | 0.87 | 0.9 | binds | binds
B6 | 9.7 | 8.3 | 30.5 | 20.1 |  |  |  | 
